Laboratory results: patent publication US20240352132A1

What was measured:
[1] = target: human EGFR protein extracellular domain with the His tag (human) (UniProt P00533); assay: SPR Biacore T200, antibody captured on Protein A, antigen in flow, 1:1 fit
[2] = target: HGFR protein extracellular domain with the His tag (human) (UniProt P08581); assay: as above
[3] = target: HGFR protein extracellular domain with the His tag (human) (UniProt P08581); assay: competition ELISA, blocks bio-HGF-His on coated HGFR-His

Kd [1]: 69.1 nM
koff [1]: 0.00473 s⁻¹
kon [1]: 68500 M⁻¹ s⁻¹
Kd [2]: 10.3 nM
koff [2]: 0.000303 s⁻¹
kon [2]: 29500 M⁻¹ s⁻¹
IC50 [3]: 1.36 µg/mL
Max (%) [3]: 94.1%
Substance: MCLA (bispecific antibody)
